Changes are numbered by the printed parent chain. One block for each binder: values may come before it.
Legend:
[1] = target: T1, native soluble IL-6R in human plasma (human), P08887; assay: ELISA 3, periplasmic extract; competitor BN-12; human plasma; settings: remark: other sources report otherwise
T1 chain: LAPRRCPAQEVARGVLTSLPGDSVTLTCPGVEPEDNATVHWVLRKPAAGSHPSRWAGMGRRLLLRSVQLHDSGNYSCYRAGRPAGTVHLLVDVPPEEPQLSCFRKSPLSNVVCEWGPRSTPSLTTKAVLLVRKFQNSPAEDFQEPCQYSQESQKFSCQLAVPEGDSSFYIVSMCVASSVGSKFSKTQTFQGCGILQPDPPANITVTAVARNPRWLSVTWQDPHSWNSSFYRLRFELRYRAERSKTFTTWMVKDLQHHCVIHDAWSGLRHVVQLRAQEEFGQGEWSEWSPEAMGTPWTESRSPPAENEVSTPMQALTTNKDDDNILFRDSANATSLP

[2] = target: T2, soluble IL-6R in cynomolgous plasma (cynomolgus monkey, UniProt A0A2K5WN54); assay: ELISA 2, periplasmic extract; competitor IL-6; cyno plasma
[3] = target: T1, native soluble IL-6R in human plasma …; assay: ELISA 1, periplasmic extract; competitor IL-6; human plasma; settings: remark: other sources report otherwise
[4] = target: T2, soluble IL-6R in cynomolgous plasma; assay: plasma potency ELISA, purified Nanobody; competitor IL-6; cyno plasma
Procedure: (§1) In this ELISA, plasma was used as a source of native soluble IL-6R. By this assay, we aimed to confirm the alphascreen results and to get a view on the cross-reactivity of the clones towards cynomolgous IL-6R. Human plasma (ELISA 1 and ELISA 3) or cynomolgous plasma (ELISA 2) were pre-incubated with a dilution of the periplasmic extract of the clones together with human IL-6 (50 ng/mL). Subsequently, plasma soluble IL-6R was captured on a B-N12 coated plate and bound IL-6 was detected using anti-IL-6 antibody BAF206 and streptavidin-HRP (ELISA 1 and ELISA 2). The ELISA signal dropped when the Nanobody clone could compete with IL-6 for binding to soluble IL-6R. ELISA 3 was a parallel ELISA in which the detection antibody was replaced by anti-IL-6R antibody BAF227 to exclude false positive competitors, which actually compete with B-N12 (e.g. family 2). Depicted in Table C-5 is the ratio of the OD450 value of the test sample versus the blank OD450 (mock sample). Clones were ordered based on ELISA 1 data.
(§2) A potency ELISA was done with the purified Nanobodies as described in Example 9. Here, different dilutions of each purified Nanobody were incubated with human (ELISA1) and cynomolgous plasma (ELISA2). IC50 values are depicted in Table C-9.

[5] = target: T3, native soluble IL-6R in human plasma (human, UniProt P08887); assay: ELISA 3, periplasmic extract; competitor BN-12; human plasma
[6] = target: IL-6R on TF-1 cells (Homo sapiens (Human), UniProt P08887); assay: cell-based or functional assay
[7] = target: human IL-6R on CHO-K1 cells (clone HuIL6R 4D6) (human, UniProt P08887); assay: FMAT competition; competitor Reference IgG-A647; CHO cells with human IL-6R
Procedure: Eleven inhibitory Nanobodies were tested in competition with labelled Reference IgG for binding to CHO cells expressing hIL-6R or cynoIL-6R.

[8] = target: T3, native soluble IL-6R in human plasma; assay: plasma potency ELISA, purified Nanobody; competitor IL-6; human plasma
Procedure: as §1, §2

[9] = target: cyno IL-6R on CHO-K1 cells (clone CyIL6R 405) (cynomolgus monkey; human-rhesus); assay: FMAT competition; competitor Reference IgG-A647; CHO cells with cyno IL-6R
[10] = target: T3, native soluble IL-6R in human plasma; assay: ELISA 1, periplasmic extract; competitor IL-6; human plasma

OD450 ratio sample/blank [1]: 1.01
OD450 ratio sample/blank [2]: 1.1
OD450 ratio sample/blank [3]: 2.02
B1: IL6RPMP103C3 (VHH)
VHH: EVQLVESGGGLVQPGGSMRLSCAATGAIFSISTMGWYRQAPGAQREFVAGVGLDGTPNYADSVKGRFTISRDNTKNTVSLQMENLKPEDTGVYYCNIDEGMDYDGNFYDRWGQGTQVTVSS

IC50 [4]: 0.55 nM
OD450 ratio sample/blank [5]: 0.988
OD450 ratio sample/blank [2]: 0.031
IC50, IL-6-dependent proliferation of TF-1 cells (3H-thymidine) [6]: 5.59 nM
IC50 [7]: 63 nM
IC50 [8]: 0.47 nM
IC50 [9]: 27 nM
OD450 ratio sample/blank [10]: 0.138
B3: IL6RPMP120A5 (VHH)
VHH: EVQLVESGGGLVQAGGSLSLSCATSGRTISDDTMAWFRQAPGKEREFVAIITFNGARTHYSDSVRDRFTISRDNAKNTVYLQMNSLKSEDTAVYYCAASTKYYSSTYNYIHPAFYDIWGQGTQVTVSS

IC50 [4]: 14.8 nM
OD450 ratio sample/blank [5]: 0.99
OD450 ratio sample/blank [2]: 0.263
IC50, IL-6-dependent proliferation of TF-1 cells (3H-thymidine) [6]: 1470 nM
IC50 [7]: > 50 nM
IC50 [8]: 37.9 nM
OD450 ratio sample/blank [10]: 1.59
B6: IL6RPMP103H9 (VHH)
VHH: EVQLVESGGGLVQPGGSLRLSCAASKSIFDINAMYWHRQAPGKQRESVASITSGGMRNYADSVKDRFTISKDNAKNTVYLQMNGLKPDDTAVYYCGLGRYEGGVWRDYWGQGTQVTVSS

OD450 ratio sample/blank [1]: 0.989
OD450 ratio sample/blank [2]: 0.961
OD450 ratio sample/blank [3]: 0.731
B7: IL6RPMP108E9 (VHH)
VHH: EVQLVESGGGLVQAGGSLRLSCAFSRRSFGNFPMGWFRQRPGEEREYVAVISWNNNYIHYRDSVKGRFTASRDTSENRMYLQMNGLKPEDTAVYYCAARTKDNTLFTPAEEYDYWGQGTQVTVSS

The remaining lines, values behind:

B2: IL6RPMP105E1 (VHH)
VHH: EVQLVESGGGLVQAGGSLRLSCAASGSIFSIKAMGWYRQAPGKQRELVARITSGGSTYYADSVKGRFTISRDNAKNTVYLQMNSLKPEDTAVFYCNAIVTDSDYDLGNDYWGQGTQVTVSS
IC50 [4]: 0.62 nM
OD450 ratio sample/blank [5]: 0.995
OD450 ratio sample/blank [2]: 0.0402
IC50, IL-6-dependent proliferation of TF-1 cells (3H-thymidine) [6]: 6.2 nM
IC50 [7]: > 100 nM
IC50 [8]: 0.58 nM
IC50 [9]: 13 nM
OD450 ratio sample/blank [10]: 0.21

B4: IL6RPMP103C7 (VHH)
VHH: B3 VHH with I50T, N54S, N84D
IC50 [4]: 13.7 nM
OD450 ratio sample/blank [5]: 0.948
OD450 ratio sample/blank [2]: 0.175
IC50, IL-6-dependent proliferation of TF-1 cells (3H-thymidine) [6]: 61.3 nM
IC50 [7]: > 100 nM
IC50 [8]: 6.9 nM
IC50 [9]: 75 nM
OD450 ratio sample/blank [10]: 0.413

B5: IL6RPMP103F2 (VHH)
VHH: EVQLVESGGGLVQAGGSLRLSCVASGHTSDTYIMAWFRQAPGKEREFVASILWDGSITYYADSVKDRFTISRDISRKTLYLQMNSLRPEDTATYTCARGIYFSRRYVDPGIYGTWGQGTQVTVSS
OD450 ratio sample/blank [1]: 0.993
OD450 ratio sample/blank [2]: 1.09
OD450 ratio sample/blank [3]: 1.95

B8: IL6RPMP103C4 (VHH)
VHH: EVQLVESGGGLVEAGGSLRLSCAAAGRTLSSYSMAWFRQAPGKEREFVAIIRGNPSRTYHSDSVKGRFTASRDNAKNTVYLQMNRLEPEDTAVYYCAADPPPFASDYSAPQSYDYWGQGTQVTVSS
IC50 [4]: 2.7 nM
OD450 ratio sample/blank [5]: 1
OD450 ratio sample/blank [2]: 0.0819
IC50, IL-6-dependent proliferation of TF-1 cells (3H-thymidine) [6]: 15.6 nM
IC50 [7]: 37 nM
IC50 [8]: 1.73 nM
IC50 [9]: 30 nM
OD450 ratio sample/blank [10]: 0.959

B9: IL6RPMP108C9 (VHH)
VHH: EVQLVESGGGLVQAGGSLRLSCAASGRTYAMAWFRQAPGKEREFVAAISIVTDYADSVKGRFNISRDNRENTVYLQMNSLKPEDTAVYYCAANTYYSGAYFPRGHEWYEYWGQGTQVTVSS
OD450 ratio sample/blank [1]: 1.01
OD450 ratio sample/blank [2]: 0.907
OD450 ratio sample/blank [3]: 0.911

Source: US10618964B2, “Nanobody against IL-6R” (Ablynx N.V., dated 2020)
